Patent US7790682B1, “Engineered human acidic fibroblast growth factors and associated methods” (The Florida State University Research Foundation, Inc., priority 2003, dated 2010)
Where “and” joins values, the source holds several entries; their conditions need not be identical. Equal values may be shown once. Entries after “also recorded” stand apart in the source; their conditions may differ.

Key:
[1] = Isothermal equilibrium denaturation in guanidine HCl monitored by CD; type: physicochemical; conditions: for Cm / m-value / ΔG0: GuHCl, 298K, CD signal at 227 nm; for ΔΔG: relative to WT*, negative value = more stable
Procedure: Protein samples were equilibrated overnight in 20 mM N-2-(acetamido)iminodiacetic acid (ADA), 100 mM NaCl pH 6.60 at 298K in 0.1M increments of guanidine HCl (GuHCl). All samples contained a final protein concentration of 25 μM. An Aviv model 202 circular dichroism spectrometer (Proterion Corp., Piscataway, N.J.) equipped with a Peltier controlled temperature unit maintaining a constant temperature of 298K was used for all spectroscopic measurements. For each sample, triplicate scans were collected and averaged. Buffer traces were collected, averaged and subtracted from the sample traces. Data smoothing was performed prior to buffer subtraction using a 5-point Fourier transform filter. The denaturation process was monitored by observing the change in CD signal at 227 nm with increasing GuHCl, according to published references. The general purpose non-linear least squares fitting program DataFit™ (Oakdale Engineering, Oakdale Pa.) was used to fit the change in molar ellipticity at 227 nm versus GuHCl concentration to a six parameter two state model: F=(F0N+SN[D]+F0D+SD[D])e^−((ΔG0+m[D]/RT)/1+e^−((ΔG0+m[D]/RT) (1) where [D] is the denaturant concentration, F0N and F0D are the 0M denaturant molar ellipticity intercepts for the native and denatured states, respectively, and SN and SD are the slopes of the native and denatured state baselines, respectively. ΔG0 and m describe the linear function of the unfolding free energy versus denaturant concentration at 298K. The effect of a given mutation upon the stability of the protein (ΔΔG) was calculated by taking the difference between the Cm values for WT* and mutant and multiplying by the average of the m values, as described by Pace and Scholtz (Measuring the conformational stability of a protein; in Protein Structure: A Practical Approach, Creighton, T. E., ed., pp. 299-321, Oxford University Press, Oxford; 1997): ΔΔG=(CmWT*−Cm mutant)(mWT*+mmutant)/2 (2) Folding Kinetics Measurements.
Previous studies by others of the stability and folding of FGF-1 have been performed by monitoring the fluorescence signal of the single buried Trp 107 in FGF-1. This Trp in the WT* structure is somewhat unusual in that it is more highly quenched in the native state than the denatured. […] We have previously compared the fluorescence and CD spectroscopic response of FGF-1 to denaturation by GuHCl and shown essentially indistinguishable results for both his-tagged and non-his-tagged forms. A tabulation of the mutant thermodynamic data from isothermal equilibrium denaturation, monitored by CD signal, is listed in Table II. The data in this table for the SYM6 mutant are from our previously published isothermal equilibrium denaturation study monitored by fluorescence.

[2] = Heparin Sepharose affinity chromatography / heparin-binding affinity
Text: All studies herein disclosed utilized a synthetic gene for the 140 amino acid form of human FGF-1 with the addition of an amino-terminal six residue “His-tag” to facilitate purification using nickel nitrilotriacetic acid (Ni-NTA) affinity resin (QIAGEN, Valencia Calif.). The QuikChange® site-directed mutagenesis protocol (Stratagene, La Jolla Calif.) was used to introduce mutations, individually or in combination, using mutagenic oligonucleotides of 25 to 31 bases in length (Biomolecular Analysis Synthesis and Sequencing Laboratory, Florida State University). For deletions involving residues 104-106 and 120-122, mutagenic oligonucleotides were used to delete these positions as well as to simultaneously create point mutations Ala103 ? Gly and Arg119 ? Gly, respectively. […]
All mutant proteins, with the exception of the SYM6 mutant were expressed at levels similar to the WT* protein (i.e. ˜30-100 mg/L). […] Phe, and E280nm (0.1%, 1 cm)=1.31 for all deletion mutations (determined by dithionitrobenzoate titration of cysteine residues).
To quantify the reduced affinity for heparin (a polysulfonated polysaccharide) we determined the affinity for sucrose octasulfate, a structural mimic of a heparin dimer, by isothermal titration calorimetry. […]

WT*: Wild type (his-tagged) 140 amino acid form of human FGF-1, SEQ ID NO: 4 [reference compound]
Cm [1]: 1.06 ± 0.01 M
m-value [1]: 20.1 ± 0.5 kJ/mol M
ΔG0 [1]: 5.09 ± 0.19 kcal/mol
ΔΔG [1]: 0 kcal/mol

B1: SYM5/Δ104-106: SYM5 FGF-1 mutant plus Ala103→Gly/ΔGlu104/ΔLys105/ΔAsn106 (protein, UniProt P05230 16-155, looked up, variant L44F L73V V109L L111I C117V A103G del104-106)
Fibroblast growth factor 1: FNLPPGNYKKPKLLYCSNGGHFLRILPDGTVDGTRDRSDQHIQFQLSAESVGEVYIKSTETGQYLAMDTDGLVYGSQTPNEECLFLERLEENHYNTYISKKHGWFLGIKKNGSVKRGPRTHYGQKAILFLPLPVSSD
Cm [1]: 1.47 ± 0.01 M
m-value [1]: 17.2 ± 0.5 kJ/mol M
ΔG0 [1]: 6.05 ± 0.22 kcal/mol
ΔΔG [1]: -1.82 kcal/mol

B2: SYM6/ΔΔ: SYM6 FGF-1 mutant plus both Δ104-106 and Δ120-122 deletion mutations, SEQ ID NO: 1 (protein)
chain: FNLPPGNYKKPKLLYCSNGGHFLRILPDGTVDGTRDRSDQHIQFQLSAESVGEVYIKSTETGQYLAIDTDGLVYGSQTPNEECLFLERLEENHYNTYISKKHGWFLGIKKNGSVKGTHYGQKAILFLPLPVSSD
modifications: Human FGF-1 mutant SYM6DD
Cm [1]: 1.91 ± 0.02 M
m-value [1]: 17.7 ± 0.4 kJ/mol M
ΔG0 [1]: 8.1 ± 0.14 kcal/mol
increase in protein stability ([1]; in comparison to WT*): 3.85 kcal/mol and ~3.82 kcal/mol
ΔΔG [1]: -3.85 kcal/mol
heparin-binding affinity (in words) [2]: markedly reduced; also recorded: decreased heparin binding affinity

B3: SYM5: FGF-1 core mutant Leu44→Phe/Leu73→Val/Val109→Leu/Leu111→Ile/Cys117→Val (protein, UniProt P05230 16-155, looked up, variant L44F L73V V109L L111I C117V)
Fibroblast growth factor 1: FNLPPGNYKKPKLLYCSNGGHFLRILPDGTVDGTRDRSDQHIQFQLSAESVGEVYIKSTETGQYLAMDTDGLVYGSQTPNEECLFLERLEENHYNTYISKKHAEKNWFLGIKKNGSVKRGPRTHYGQKAILFLPLPVSSD
Cm [1]: 1.05 ± 0.01 M
m-value [1]: 17.5 ± 0.3 kJ/mol M
ΔG0 [1]: 4.4 ± 0.096 kcal/mol
effect on stability of insertion of both loop regions ([1]; relative to SYM5ΔΔ): +15.0 kJ/mol
ΔΔG [1]: 0.048 kcal/mol

B4: SYM5/Δ120-122: SYM5 FGF-1 mutant plus Arg119→Gly/ΔGly120/ΔPro121/ΔArg122, SEQ ID NO: 2 (protein)
chain: FNLPPGNYKKPKLLYCSNGGHFLRILPDGTVDGTRDRSDQHIQFQLSAESVGEVYIKSTETGQYLAMDTDGLVYGSQTPNEECLFLERLEENHYNTYISKKHAEKNWFLGIKKNGSVKGTHYGQKAILFLPLPVSSD
modifications: Human FGF-1 mutant SYM5D120-122
Cm [1]: 1.00 ± 0.02 M
m-value [1]: 16.6 ± 0.5 kJ/mol M
ΔG0 [1]: 3.97 ± 0.12 kcal/mol
ΔΔG [1]: 0.263 kcal/mol
